The target in assay [1] is T1, soluble TfR antigen (human TfR extracellular domain) (human, UniProt P02786 89-760).
T1 construct: also called soluble human TfR
Description: ELISA, soluble TfR antigen coated at 2 ug/mL, HRP anti-human IgG Fc, A450. A general note: An ELISA detects its analyte on a solid surface through an enzyme-linked reagent.

Assay [2] addresses human transferrin receptor (TfR) on cells (human, UniProt P02786 1-760). Description: cell-based or functional assay.

Consider two molecules from US20150291697A1 (PERSEUS PROTEOMICS, published 2015).

Sequence of human transferrin receptor (TfR) on cells (P02786 whole entry): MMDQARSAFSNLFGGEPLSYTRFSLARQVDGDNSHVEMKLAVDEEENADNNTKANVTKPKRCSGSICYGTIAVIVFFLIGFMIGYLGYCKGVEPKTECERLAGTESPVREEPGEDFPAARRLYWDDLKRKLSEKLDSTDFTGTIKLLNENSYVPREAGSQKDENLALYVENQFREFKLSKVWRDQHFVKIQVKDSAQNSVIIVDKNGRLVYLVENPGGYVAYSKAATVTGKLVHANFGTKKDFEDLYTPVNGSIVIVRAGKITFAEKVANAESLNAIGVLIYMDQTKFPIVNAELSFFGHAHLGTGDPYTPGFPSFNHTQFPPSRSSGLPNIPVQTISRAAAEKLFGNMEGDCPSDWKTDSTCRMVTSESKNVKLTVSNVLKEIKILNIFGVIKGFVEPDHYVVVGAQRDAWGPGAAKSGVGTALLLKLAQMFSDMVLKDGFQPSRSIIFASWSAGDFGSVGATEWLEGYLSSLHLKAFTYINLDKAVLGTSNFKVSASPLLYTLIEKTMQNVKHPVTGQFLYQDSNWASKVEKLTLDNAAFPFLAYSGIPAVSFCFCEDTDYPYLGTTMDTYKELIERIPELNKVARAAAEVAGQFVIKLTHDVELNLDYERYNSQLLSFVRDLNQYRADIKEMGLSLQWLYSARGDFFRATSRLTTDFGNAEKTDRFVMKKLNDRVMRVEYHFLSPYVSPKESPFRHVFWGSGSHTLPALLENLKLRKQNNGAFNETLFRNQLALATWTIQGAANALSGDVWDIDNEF
T1 sequence (P02786 89-760 limits assumed): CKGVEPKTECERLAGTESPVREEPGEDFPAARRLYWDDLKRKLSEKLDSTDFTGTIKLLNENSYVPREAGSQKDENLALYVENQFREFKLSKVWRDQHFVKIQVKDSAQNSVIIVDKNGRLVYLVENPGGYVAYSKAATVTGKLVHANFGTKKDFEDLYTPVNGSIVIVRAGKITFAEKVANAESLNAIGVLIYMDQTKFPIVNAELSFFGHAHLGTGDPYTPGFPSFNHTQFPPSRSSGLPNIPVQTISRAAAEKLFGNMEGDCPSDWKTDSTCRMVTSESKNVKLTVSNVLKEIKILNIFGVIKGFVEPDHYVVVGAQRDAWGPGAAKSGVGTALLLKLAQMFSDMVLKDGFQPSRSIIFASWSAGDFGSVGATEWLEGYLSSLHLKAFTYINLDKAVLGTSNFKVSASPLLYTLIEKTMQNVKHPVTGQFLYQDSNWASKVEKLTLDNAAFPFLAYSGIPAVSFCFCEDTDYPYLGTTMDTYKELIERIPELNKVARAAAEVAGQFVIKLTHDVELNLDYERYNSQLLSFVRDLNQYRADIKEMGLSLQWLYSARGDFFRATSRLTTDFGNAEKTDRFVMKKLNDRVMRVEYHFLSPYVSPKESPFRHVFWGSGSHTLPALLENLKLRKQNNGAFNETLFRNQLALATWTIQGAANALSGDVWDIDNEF

B1: 3TF12 IgG1 antibody (from 3TF12 scFv of WO 2011/073943) (antibody, V domains shown)
VH: QVQLQESGGGLVQPGGSLRLSCAASGFSFNTYTMHWVRQAPGKGLEWVADIAYDGSTKYYADSVKGRFTISRDNAKNSLYLQMNSLRAEDTAVYYCARDAVAGEGYFDLWGRGTLVTVSS
VL: QSALTQDPAVSVALGQTVRITCQGDSLRSYYASWYQQLPGTAPKLLIYRNNQRPSGVPDRFSGSKSGTSASLAISGLRSEDEADYYCAAWDDSLSAWVFGGGTKLTVLG
notes: also called 3TF12 antibody
In the case of B1, in assay [1], the binding result is recorded as “binds”.

B2: TfR006 antibody (parent antibody, IgG) (antibody, V domains shown)
VH: QVQLVQSGGGVVQPGRSLRLSCAASGFPFKSYGMHWVRQAPGKGLEWVAVISFDGSSKYYADSVKGRFTISRDNSKNTLYLQMNSLRGEDTAVYYCARDSNFWSGYYSPVDVWGQGTTVTVSS
VL: NFMLTQPHSVSESPGKTVTISCTRSSGSIASNSVQWYQQRPGSAPITVIYEDTQRPSGVPDRFSGSIDSSSNSASLTISGLQTEDEADYYCQSYDSAYHWVFGGGTKLAVL
B2: in assay [2], the “Antibody concentration exhibiting 50% growth rate (IC50), K562 cells” value was determined as 0.034 µg/mL and the “Antibody concentration exhibiting 50% growth rate (IC50), MT-2 cells” value amounted to 0.008 µg/mL.
